{
  "source": "patent US20120213799A1",
  "about": "(published 2012)",
  "binders": {"B1": {"name": "H3L2 (antibody, V domains shown)", "VH": "QVQLVQSGAEVKKPGASVKVSCKASGYTFTNYYIHWVKQAPGQGLEWIGWIYPGDGSPKFNERFKGRTTLTADKSTNTAYMLLSSLRSDDTAVYFCATGPTDGDYFDYWGQGTTVTVSS", "VL": "DIQMTQSPSSLSASVGDRVTITCRASGNIHNFLAWYQQKPGKAPKFLVYNEKTLADGVPSRFSGSGSGTQYTLTISSLQPEDFATYFCQQFWSTPYTFGGGTKVEIK"}, "B2": {"name": "H3-2L2 (antibody, V domains shown)", "VH": "B1 VH with D89E", "VL": "B1 VL"}, "B3": {"name": "H3L4 (antibody, V domains shown)", "VH": "B1 VH", "VL": "B1 VL with F46L, V48I, Q70D"}, "B4": {"name": "HK2L4 (antibody, V domains shown)", "VH": "B1 VH with K38R, L70M, K74T, N77S, L82E, D89E, T98R", "VL": "B1 VL with F46L, V48I, Q70D"}, "B5": {"name": "H3-2L4 (antibody, V domains shown)", "VH": "B1 VH with D89E", "VL": "B1 VL with F46L, V48I, Q70D"}, "B6": {"name": "chimeric (antibody, V domains shown)", "VH": "QVQLQQSGPELVKPGASVKMSCKASGYTFTNYYIHWVKQRPGQGLEWIGWIYPGDGSPKFNERFKGKTTLTADKSSNTAYMLLSSLTSEDSAIYFCATGPTDGDYFDYWGQGTTLTVSS", "VL": "DIQMTQSPASLSASVGETVTITCRASGNIHNFLAWYQQKQGKSPQFLVYNEKTLADGVPSRFSGSGSGTQYSLKINSLQPEDFGIYFCQQFWSTPYTFGGGTKLEIK"}, "B7": {"name": "mouse anti-hFKN mAb clone 3A5-2 (antibody, V domains shown)", "VH": "B6 VH", "VL": "B6 VL"}, "B8": {"name": "humanized anti-hFKN mAb H3L2-IgG2 (antibody, V domains shown)", "VH": "B1 VH", "VL": "B1 VL"}, "B9": {"name": "humanized anti-hFKN mAb H3-2L4-IgG2 (antibody, V domains shown)", "VH": "B1 VH with D89E", "VL": "B1 VL with F46L, V48I, Q70D"}, "B10": {"name": "humanized anti-hFKN mAb H3-L4-IgG2 (antibody, V domains shown)", "VH": "B1 VH", "VL": "B1 VL with F46L, V48I, Q70D"}, "B11": {"name": "humanized anti-hFKN mAb H3-2L2-IgG2 (antibody, V domains shown)", "VH": "B1 VH with D89E", "VL": "B1 VL"}, "B12": {"name": "mouse-human chimeric 3A5-2 mAb (antibody, V domains shown)", "VH": "B6 VH", "VL": "B6 VL"}},
  "note": "Positions count from the first letter of the chain named.",
  "data": [
    {"target": "cynomolgus FKN-SEAP (human;)", "assay": "BIACORE", "units": {"Kd": "pM"}, "values": [
      {"binder": "B1", "Kd": 9.62},
      {"binder": "B2", "Kd": 6.75},
      {"binder": "B3", "Kd": 12},
      {"binder": "B4", "Kd": 26},
      {"binder": "B5", "Kd": 7.71},
      {"binder": "B6", "Kd": 6.62}
    ]},
    {"target": "T1, recombinant human FKN (R&D Systems, Catalog No. 362-CX/CF) (UniProt P78423 25-100)", "T1 chain": "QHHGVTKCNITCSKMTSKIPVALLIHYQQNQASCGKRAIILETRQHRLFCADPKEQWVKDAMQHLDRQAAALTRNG", "assay": "BIACORE", "units": {"Kd": "pM"}, "values": [
      {"binder": "B7", "Kd": 600}
    ]},
    {"target": "T2, soluble hFKN-SEAP (extracellular region of human fractalkine conjugated to secreted alkaline phosphatase) (UniProt P78423 25-341)", "T2 chain": "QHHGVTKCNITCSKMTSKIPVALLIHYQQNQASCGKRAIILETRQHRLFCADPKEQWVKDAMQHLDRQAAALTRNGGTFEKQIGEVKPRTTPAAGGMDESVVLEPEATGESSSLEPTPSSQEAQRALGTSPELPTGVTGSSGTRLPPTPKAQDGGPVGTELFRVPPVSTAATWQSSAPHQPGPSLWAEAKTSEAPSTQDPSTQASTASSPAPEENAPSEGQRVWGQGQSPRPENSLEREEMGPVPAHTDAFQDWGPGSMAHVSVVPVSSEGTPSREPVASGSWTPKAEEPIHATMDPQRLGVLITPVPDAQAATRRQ", "assay": "BIACORE", "units": {"Kd": "pM"}, "values": [
      {"binder": "B8", "Kd": 8.84},
      {"binder": "B9", "Kd": 5.34},
      {"binder": "B10", "Kd": 6.43},
      {"binder": "B11", "Kd": 5.92},
      {"binder": "B12", "Kd": 7.13}
    ]}
  ]
}
